From publication PMC5291005, “Listeria monocytogenes 10403S Arginine Repressor ArgR Finely Tunes Arginine Metabolism Regulation under Acidic Conditions” (Frontiers in Microbiology, 2017)
“And” between values parts separate entries of the source, which are not always exact repeats. Equal entries are not always repeated.

Molecular target: the molecule itself
Assay: cross-linking; purified N-terminal His6-ArgR cross-linked with various amounts of glutaraldehyde (multimers at 0.05%) in 50 mM HEPES pH 8.0, 150 mM KCl, 1 mM L-arginine, with or without 1% beta-mercaptoethanol, room temperature, 2 h; 10% SDS-PAGE, Coomassie staining

B1: Listeria monocytogenes 10403S arginine repressor ArgR (natural protein, UniProt B8DFW1 1-149, looked up)
chain: MNKGHRHIIIRELITSNEIDTQEDLVELLLERDVKVTQATVSRDIKELHLVKVPTQTGGYKYSLPADNSFNPHQKLKRALIDCFIGIDNVQFMIILKVMPGNGNSVGALIDNLDWPEKAGTICGDDTCLIICRSEENAKTLTDRFIDML
notes: ArgR, arginine repressor of the ArgR/AhrC family, Listeria monocytogenes strain 10403S; full-length ORF amplified from the 10403S genome; the his-tagged protein runs at about 23 kDa; also called recombinant ArgR; his-tagged ArgR protein; not shown: His6, N-terminal, kept
stoichiometry N: 3 and 6
